Source: the supplement of paper PMC12042874
± gives the uncertainty stated by the source.

Assay: amyloid nucleation score (Sup35N fusion, yeast selection) (log enrichment); library NNK3; higher = more nucleation; inactive = no reads after selection
Summary of the method: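 The nucleation score is the log enrichment of output over input reads, calculated with DiMSum and centred on the mode score of non-aggregating sequences. Sequences with under 100 input reads were excluded. Reads came from Illumina sequencing of plasmid inserts from psi-negative yeast expressing Sup35N fused to peptides of 20 random codons, induced 24 hours with 100 μM copper sulfate and grown 7 days at 30°C without adenine and uracil.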

| Substance | amyloid nucleation score |
| --- | --- |
| TLFGFCAREIVRMRNDHIQV | inactive |
| LYVGEKLVHFLEARMD | inactive |
| RPPMDEICSNFRSRTLNQSK | inactive |
| WGTVMTLSCVALEVYFSLRV | inactive |
| HSATASFHAADWSLKFMDGP | 0.326 ± 0.23 |
| WHWRGTICVLCAGYRWIAHS | inactive |
| FCFQAFF | inactive |
| LIFWRPIGDEHYLWPLPFYL | inactive |
| LDQTSRIVYVFTCSYWLDKV | inactive |
| YIRATCDSLCVISVWVLRFL | inactive |
| VYMYVALPRSEDHNVF | inactive |
| DDRVVPVLYQTCSAVRR | inactive |
| CMSDF | inactive |
| LGSIRSSKCKNLVICIGPMC | 2.41 ± 0.051 |
| DYGMLCSLLSGDISNSEVGI | inactive |
| VFNMLGFSDY | inactive |
| MSFRRIFSSLIYSLRRSSAN | inactive |
| THFYWADAVVMPAYRVIRRF | inactive |
| MFFAGKTPGHVHVWNSANTR | inactive |
| RISYKVRHTSNLVKTWCYTW | inactive |
| ASTTVGCVYYTLVLIG | 1.98 ± 0.09 |
| IRTTSPHHDSLSNEGVIDML | inactive |
| NSCIFQTRMSGSYETVYHAP | 0.054 ± 0.45 |

| Substance | amyloid nucleation score |
| --- | --- |
| LNIFTYMCVMALMCLEKITS | 1.73 ± 0.11 |
| IGSSRIDFSSRNYGV | 0.576 ± 0.12 |
| LYLKYLELEILRPYGAFICH | inactive |
| SWFALSLIIKTRVWT | inactive |
| LFDFHSSCKSAVIAYLLSRR | 0.138 ± 0.47 |
| KCSTMGWRWYMSS | -0.106 ± 0.93 |
| FAGDLRDCWFLSFV | inactive |
| KFFCW | inactive |
| LCRRLQTGMAYHMVSSYFNW | inactive |
| TFYSSML | inactive |
| NLSSSDTRSVCASWVTR | inactive |
| LIGFLNNSVFMSAGY | inactive |
| TLYFYNTCLRQCKQYFIDFR | 0.305 ± 0.16 |
| YFRNHSRVDDLDGGRRDVFR | inactive |
| SDISRQYICVMYVSRLRG | inactive |
| NHQLGIGYFCDTYLCDHWDP | inactive |
| RYLVRCSFWVGKNLV | 0.722 ± 0.2 |
| LSVLTL | inactive |
| RSVKSIDSHMAKESF | inactive |
| TLVIHIN | inactive |
| FYYPRS | inactive |
| GIIVLLVPETQCRCFGDLIR | inactive |
| CSGQVQ | inactive |

| Substance | amyloid nucleation score |
| --- | --- |
| QDFKCRRGNY | inactive |
| SLFFSYV | inactive |
| WKNLSYRGFHYWTALWHMVR | -0.12 ± 1 |
| VPKKEKWRFDIVL | inactive |
| RMRCAAVRAARAVPATKGEG | inactive |
| CWWCCATGTHSSSYIGRGVH | 0.844 ± 0.24 |
| LYSGVIAHCIVIPIELFSVS | inactive |
| PEKMFPSPVTATRFANCVL | inactive |
| EKFMPHTELLNVWGLRQILM | inactive |
| YLSGS | inactive |
| SLQKWWDSLTHNLMVVTKHG | inactive |
| LNYIIRRLIVIILFSQHQYY | inactive |
| KLCYTASEWSGNSLNVVRNK | inactive |
| RYHNFLYGLGNPMG | inactive |
| QDVVNPPLFY | inactive |
| PGLRVNYFRGESLDVYIVEE | 2.14 ± 0.071 |
| CADVTTTHGGLYVGPSSTAT | inactive |
| QSDHTLPMCRSSLRICVSGR | 1.75 ± 0.07 |
| YTGYWTGLYYVFMEINGWGS | inactive |
| CGGAMMKN | inactive |
| FYFWLASLCSSDFSFYKVKL | inactive |
| IRMYNSSERFYSPDKRHVPK | inactive |
| VCYYRQACTITNLLVMVFVC | inactive |

| Substance | amyloid nucleation score |
| --- | --- |
| SLGSNEKYWERRVSSHNWTT | inactive |
| VYKWECKDRKYGWRYCAETW | inactive |
| ASNDDVG | inactive |
| DLFKCGRGHVIFVLSRLLIS | -0.459 ± 1.1 |
| MWMLLFGCSSCWWSCNRLSP | -0.239 ± 0.8 |
| SCARSGTYIAVGIQSCCPRW | 1.5 ± 0.14 |
| QWLAEGYT | inactive |
| PEPHLKSEKYNCSGDWPLPL | inactive |
| MHFLVQSCFTEPRWAACRNV | inactive |
| WRACHSRSSVVNWISLPDYS | inactive |
| FFNDSYIRYFSCM | 0.02 ± 0.77 |
| LFCGT | inactive |
| NTNRSLENDCIRALRQCGLV | inactive |
| RGAGSTESLTNGRGSIAIHR | inactive |
| MYAVSGVNAQGWWLLADYEL | inactive |
| RCLSNN | inactive |
| CKLCTFSKRLNLTFRMVASL | inactive |
| SLGEKMNVASLQAVMSC | inactive |
| GVLLKVSR | inactive |
| SDMVVKGERGYICILICRLR | inactive |
| WTMVSGDALTCYTMTTMVRR | inactive |
| STNWSILFQDHSTTFFLMCA | 0.279 ± 0.2 |
| WFYYVM | inactive |

| Substance | amyloid nucleation score |
| --- | --- |
| SSAPEQRF | inactive |
| YNDDKYCFDMNCMSPRYRGD | -0.191 ± 0.4 |
| THIGFFFNCIL | 2.56 ± 0.082 |
| VDVAVFLEMLYCWCRDGFTR | 1.79 ± 0.1 |
| LDDRQSVCGTAYKVMTDIS | inactive |
| YDCCMLHWIVFGGIVDGMCL | inactive |
| RCWNKVFLSYQTELI | inactive |
| IFSRLGFVCLIMFTC | inactive |
| CCNYFLNIIYVVQV | 3.14 ± 0.058 |
| KGTPGLDFTAADPGVIAL | inactive |
| IRRLSSVCMGCSWYL | inactive |
| ALFTESF | inactive |
| GSSVCAR | inactive |
| VKVCEVSMQNRIFTGHAHFS | inactive |
| RAQKVPCVIFSYTWIRSMSD | inactive |
| FHTFSVCVGRGTMYYRALEE | 0.277 ± 0.23 |
| AHCCSFRAEFV | 1.75 ± 0.096 |
| QVLCWFISTADLLLAK | inactive |
| GLNMVWFVHLSVNV | inactive |
| RIFFKVCNVRLSVADFSHYV | 1.99 ± 0.051 |
| RDFITRSSECSESD | inactive |
| IRLVPWFW | inactive |
| MSLLS | inactive |

| Substance | amyloid nucleation score |
| --- | --- |
| LLFQSIVVY | inactive |
| RTIRFRFIGWWLAIAEDCRG | inactive |
| GILRIWNDLSLRFDKIWWG | inactive |
| YWSCRWGLVLVS | inactive |
| QTLRGCSNCRTRVGC | inactive |
| PVLSRITFSNSSDRI | inactive |
| LTGVLLMMVLYSRPHLTKAR | inactive |
| GPAVWPKWVSLAKWYPSEI | inactive |
| QCCIMAITLDYFASPRYIVR | 0.022 ± 0.52 |
| VNSDEPMHWRSSGNYRARIV | inactive |
| SDVDDKVHKVHQQLVAILHF | 0.624 ± 0.17 |
| TQMILWVM | inactive |
| WLRSVLLRVTLLNSWHSWVS | inactive |
| RMKGFEFCCWDQ | -0.31 ± 0.55 |
| AFYFNEMYRLVLMGTM | inactive |
| DVNFSLC | -0.002 ± 0.32 |
| NLVYLLLRLYMMTFYQQRCP | inactive |
| EALLSSLIIFIDQRGVCEFV | inactive |
| RHMPYNGLKNDKIFYILNYT | inactive |
| TFGWINVAYSYSFSICGCTG | 2.62 ± 0.051 |
| SWSARVKVLLVVGCNVSVFC | 0.842 ± 0.2 |
| ITGFLFRVVW | 0.829 ± 0.13 |
| MCSIIRCRFNMFCLMYVNSV | 0.584 ± 0.13 |

| Substance | amyloid nucleation score |
| --- | --- |
| IRGVECNRLGIYLLCVTHSM | -0.624 ± 0.8 |
| RLTWESTMYVKIVGMSYAFG | -0.241 ± 0.36 |
| FVTFGYQWYRRVAGALGCLE | 0.37 ± 0.57 |
| INFCIINNTMV | 1.75 ± 0.071 |
| DLISEKEQEPGRD | 0.406 ± 0.21 |
| VWYAYRLYQTWKITNVLIPW | inactive |
| GISYNSV | inactive |
| RICWSDINWYNRIFLIAELC | inactive |
| YLHYRHYSSVCFYFSSNISN | inactive |
| SNMIRVRWRVAFRGWMARCL | inactive |
| YPSCRTSLSARHMVFQGITL | inactive |
| TWCGFWTLMERVYHRRWTSL | inactive |
| VKSISNNSQLSSELN | inactive |
| LFFLRRNCHTDVSSLEYDNA | inactive |
| NEWIKDINVI | inactive |
| ASHDKGFYLGSCTYLYGLRL | inactive |
| SFCYN | inactive |
| DRYDSVYEDGLLLLMFFDHV | inactive |
| RWFQRWEIKTNAHLLTTLNM | inactive |
| SQSGELFSDMMVLLG | inactive |
| TAGNWWNVCVNTFNRWRRLL | inactive |
| DYRTH | inactive |
| AVRMICDSCAYSLPTWVDLA | -0.592 ± 1.4 |
